Reference: patent US20210388105A1 (ELPISCIENCE SUZHOU BIOPHARMA, published 2021)
Several values for one entry are separate records, joined by “and”; a condition that tells them apart may be missing. Equal entries are not always repeated. Where two headings read alike, the source gives them in different places.

T1: human CD39 (full length, on cells) (human, UniProt P49961 1-510)
T1 construct: Recombinant on CHOK1-hCD39 cells or natural on SK-MEL-28, SK-MEL-5 and MOLP-8 cells; the cell line is named under assay; also called hCD39; ENTPD1
T1 sequence: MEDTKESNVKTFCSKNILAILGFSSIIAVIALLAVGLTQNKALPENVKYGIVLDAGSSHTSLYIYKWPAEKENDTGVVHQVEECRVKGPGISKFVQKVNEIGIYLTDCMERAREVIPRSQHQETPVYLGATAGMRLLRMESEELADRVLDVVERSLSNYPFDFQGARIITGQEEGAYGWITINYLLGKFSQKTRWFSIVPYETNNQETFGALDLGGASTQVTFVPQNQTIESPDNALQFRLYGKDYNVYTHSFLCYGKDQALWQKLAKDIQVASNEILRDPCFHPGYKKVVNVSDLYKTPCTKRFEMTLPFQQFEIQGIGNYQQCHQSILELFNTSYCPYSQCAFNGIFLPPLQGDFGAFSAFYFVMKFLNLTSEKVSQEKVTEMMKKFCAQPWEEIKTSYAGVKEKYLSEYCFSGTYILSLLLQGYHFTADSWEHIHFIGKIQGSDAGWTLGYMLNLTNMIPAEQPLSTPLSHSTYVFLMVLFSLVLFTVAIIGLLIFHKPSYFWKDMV

T2: 6×His tagged human CD39 (human, UniProt P49961 38-478)
T2 construct: Analyte in the Biacore assay
T2 sequence: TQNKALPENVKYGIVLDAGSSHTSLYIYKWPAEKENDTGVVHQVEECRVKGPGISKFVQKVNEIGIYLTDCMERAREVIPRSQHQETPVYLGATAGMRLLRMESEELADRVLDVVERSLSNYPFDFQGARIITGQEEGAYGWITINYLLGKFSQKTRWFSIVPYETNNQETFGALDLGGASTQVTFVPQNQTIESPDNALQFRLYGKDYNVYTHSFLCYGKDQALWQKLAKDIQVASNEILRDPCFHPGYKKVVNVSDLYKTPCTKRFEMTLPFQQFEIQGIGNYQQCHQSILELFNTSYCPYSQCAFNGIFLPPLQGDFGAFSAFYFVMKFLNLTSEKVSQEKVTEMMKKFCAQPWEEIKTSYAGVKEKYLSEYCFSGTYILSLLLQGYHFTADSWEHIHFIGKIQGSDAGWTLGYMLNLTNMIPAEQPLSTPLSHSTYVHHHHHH


Key:
[1] = molecular target: T1, human CD39 (full length, on cells); assay: FACS, MOLP-8 cells
Experimental: (§1) Similarly, human CD39 expressing cells SK-MEL-5, SK-MEL-28 or MOLP-8, were incubated with a gradient concentration of anti-CD39 antibodies for 30 minutes at 4° C. Cells were washed 3 times using FACS buffer and next incubated with fluorescence labelled secondary antibody (goat-anti-mouse IgG or goat anti-human IgG) for 30 minutes at 4° C. Cells were washed 3 times and then re-suspended in FACS buffer and analyzed by flow cytometry analysis on BD Celesta. Data plotted and analyzed using GraphPad Prism 8.02.
The binding affinity of the humanized antibodies for c14 was determined by FACS using MOLP-8 cells expressing human CD39, using similar methods as described in Example 3.2.

[2] = molecular target: T1, human CD39 (full length, on cells); assay: FACS, MOLP-8 cells; remark: listed apart in the source
Experimental: as §1
(§2) The binding affinity of the humanized antibodies for c23 was determined by FACS, using similar methods as described in Example 3.2. The c23 humanized antibody clones showing good binding affinity are listed in below Table 19 and Table 20, and also shown in FIGS. 7A, 7B and FIG. 8. EC₅₀ is the concentration of the indicated antibodies to reach 50% of the signal in this assay.

[3] = molecular target: T1, human CD39 (full length, on cells); assay: cell-based or functional assay
6×His tagged human CD39 = molecular target: T2, 6×His tagged human CD39; assay: Biacore SPR, antibody captured on CM5 chip, His-tagged CD39 as analyte
Experimental: In particular, humanized antibodies hu23.H5L5, hu23.201, hu14.H1L1 and reference antibodies 1394 and T895 were characterized for binding affinity against human CD39 using Biacore (GE). Briefly the antibodies to be tested were captured to CM5 chip (GE) using Human Antibody Capture Kit (GE). The antigen of 6×His tagged human CD39 was serially diluted for multiple doses and injected at 30 μl/min for 180s. Buffer flow was maintained for dissociation of 400s. 3 M MgCl2 was used for chip regeneration. The association and dissociation curves were fit with 1:1 binding model, and the Ka/Kd/KD values for each antibody were calculated.

[4] = molecular target: T1, human CD39 (full length, on cells); assay: FACS, MOLP-8 cells; remark: listed apart in the source
Experimental: as §1, §2

EC50 [1] | EC50 [2] | ATPase inhibition IC50 on SK-MEL-28 cells [3] | Binder | further results
5.95 nM | – | – | hu14.H3L1 (antibody, V domains shown, humanized c14) VH: EVQLVESGGGLVKPGGSLRLSCAASGFTFSKYWMNWVRQSPGKGLEWVAEIRLKSNKYGTHYAESVKGRFTISRDDSKNTVYLQMNSLKTEDTAVYYCTTQLDLYWFFDVWGQGTTVTVSS VL: EIVLTQSPATLSLSPGERATLSCRASQSISDYLHWYQQKPGQAPRLLIYYASQSISGIPARFSGSGSGTDFTLTISSLEPEDFAVYYCQNGHSLPLTFGGGTKLEIK | –
6.05 nM | – | – | hu14.H3L4 (antibody, V domains shown, humanized c14) VH: EVQLVESGGGLVKPGGSLRLSCAASGFTFSKYWMNWVRQSPGKGLEWVAEIRLKSNKYGTHYAESVKGRFTISRDDSKNTVYLQMNSLKTEDTAVYYCTTQLDLYWFFDVWGQGTTVTVSS VL: EIVMTQSPATLSVSPGERVTLSCRASQSISDYLHWYQQKPGQSPRLLIYYASQSISGIPARFSGSGSGTDFTLTISSVEPEDFAVYFCQNGHSLPLTFGGGTKLEIK | –
5.46 nM | – | – | hu14.H4L4 (antibody, V domains shown, humanized c14) VH: EVQLVESGGGLVKPGGSMRLSCAASGFTFSKYWMNWVRQSPGKGLEWVAEIRLKSNKYGTHYAESVKGRFTISRDDSKNTVYLQMNSLKTEDTAVYYCTTQLDLYWFFDVWGQGTTVTVSS VL: EIVMTQSPATLSVSPGERVTLSCRASQSISDYLHWYQQKPGQSPRLLIYYASQSISGIPARFSGSGSGTDFTLTISSVEPEDFAVYFCQNGHSLPLTFGGGTKLEIK | –
6.09 nM | – | – | hu14.H3L3 (antibody, V domains shown, humanized c14) VH: EVQLVESGGGLVKPGGSLRLSCAASGFTFSKYWMNWVRQSPGKGLEWVAEIRLKSNKYGTHYAESVKGRFTISRDDSKNTVYLQMNSLKTEDTAVYYCTTQLDLYWFFDVWGQGTTVTVSS VL: EIVLTQSPATLSVSPGERATLSCRASQSISDYLHWYQQKPGQSPRLLIYYASQSISGIPARFSGSGSGTDFTLTISSVEPEDFAVYFCQNGHSLPLTFGGGTKLEIK | –
17.5 nM | – | – | c14 (antibody, V domains shown, variable regions of mAb14 on human IgG constant regions; also called chimeric antibody c14) VH: EVKLEESGGGLVQPGGSMKLSCVASGFTFSKYWMNWVRQSPEKGLEWVAEIRLKSNKYGTHYAESVKGRFTISRDDSKNNVYLQMNNLRPEDTGIYYCTTQLDLYWFFDVWGAGTTVTVSS VL: DIVMTQSPAILSVTPGDRVSLSCRASQSISDYLHWYQQKSHESPRLLIKYASQSISGIPSRFSGSGSGSNFTLSINSVEPEDVGVYFCQNGHSLPLTFGAGTKLELR | –
– | 0.429 nM | 0.32 nM | hu23.203 (antibody, V domains shown, humanized c23 by yeast display) VH: QVQLVQSGAEVKKPGASVKVSCKASGYTLKDTFLHWVRQAPGQRLEWMGRIDPANGNIKYDPKFQGRVTLTADTSSNTAYMELSSLRSEDTAVYYCANSPYYYGSGYRIFDVWGQGTLVTVSS VL: EIVLTQSPATLTLSPGERATLSCSAFSSVNYMHWYQQKPGQAPRLLIYTTSNLASGIPARFSGSGSGTDYTLTISSLEPEDFAVYYCQQRSTYPFTFGQGTKLEIK | –
– | 1.29 nM | 0.264 nM | hu23.201 (antibody, V domains shown, humanized c23 by yeast display) VH: QVQLVQSGAEVKKPGASVKVSCKASGYTLKDTFLHWVRQAPGQRLEWMGRIDPANGNIKYDPKFQGRVTLTADTSSNTAYMELSSLRSEDTAVYYCANSPYYYGSGYRIFDVWGQGTLVTVSS VL: EIVLTQSPATLSLSPGERATLSCSAFSSVNYMHWYQQKPGQSPRLLIYTTSNLASGIPARFSGSGSGTDYTLTISSLEPEDFAVYYCQQRSTYPFTFGQGTKLEIK | Kd (6×His tagged human CD39): 24 nM; koff (6×His tagged human CD39): 0.00162 s⁻¹; kon (6×His tagged human CD39): 67500 M⁻¹ s⁻¹
– | 1.56 nM | 0.386 nM | hu23.211 (antibody, V domains shown, humanized c23 by yeast display) VH: EVQLVQSGAEVKKPGASVKVSCKASGYTLKDTFLHWVRQAPGQRLEWMGRIDPANGNIKYDPKFQGRVTITADTSSNTAYMELSSLRSEDTAVYYCANSPYYYGSGYRIFDVWGQGTLVTVSS VL: EIVLTQSPATLSLSPGERATLSCSAFSSVNYMHWYQQKPGQAPRLLIYTTSNLASGIPARFSGSGSGTDYTLTISSLEPEDFAVYYCQQRSTYPFTFGQGTKLEIK | –
– | 2.25 nM | – | hu23.207 (antibody, V domains shown, humanized c23 by yeast display) VH: EVQLVQSGAEVKKPGASVKVSCKASGYTLKDTFLHWVRQAPGQRLEWMGKIDPANGNIKYDPKFQGRVTLTADTSSNTAYMELSSLRSEDTAVYYCANSPYYYGSGYRIFDVWGQGTLVTVSS VL: EIVLTQSPATLSLSPGERATLSCSAFSSVNYMHWYQQKPGQSPRLLIYTTSNLASGIPARFSGSGSGTDYTLTISSLEPEDFAVYYCQQRSTYPFTFGQGTKLEIK | –
– | 1.28 nM | 0.158 nM and 0.209 nM | c23 (antibody, V domains shown, variable regions of mAb23 on human IgG constant regions; also called chimeric antibody c23) VH: EVQLQQSGAELLRPGASVKLSCTASGYNLKDTFLHWVKQRPEQGLEWIGRIDPANGNIKYDPKFQGKATLTADTSSNTAYLQLISLTSEDTAVYYCANSPYYYGSGYRIFDVWGAGTTVTVSS VL: QIVLTQSPAIMSASPGEKVTITCSAFSSVNYMHWYQQKPGTSPKLLIYTTSNLASGVPTRFSGSGSGTSYSLTISRMEAEDAATYYCQQRSTYPFTFGSGTKLEIQ | EC50 [4]: 1.03 nM and 0.397 nM
